This assay addresses 抗Fasモノクローナル抗体HFE7A (from mouse-mouse hybridoma HFE7A, FERM BP-5828). Kind of assay: peptide (200 μg) preincubated with HFE7A (0.25 μg), then flow cytometry on WR19L12a cells.

In turn, EINCTRTQNT [P100] displayed an inhibition of binding of HFE7A to WR19L12a cells of 50%.
KCRCKPNFFC [P110] came in with an inhibition of binding of HFE7A to WR19L12a cells of 60%.

Values taken from patent publication JP2000166574A.
